Source: patent US8398967B2, “Particle formulations for use in pharmaceutical compositions” (Intarcia Therapeutics, Inc., priority 2002, dated 2013)

How the values were obtained:
[1] = ω-Interferon solubility in non-aqueous liquid solvents; type: physicochemical
Description: Thirteen non-aqueous liquid solvent candidates were identified to develop a solution formulation or a suspension formulation based on solubility of ω-interferon. The solvents at the top, e.g., lauryl lactate, are potential suspension solvents. The character of the solvents changes to potential solution solvents in combination with ω-interferon, e.g., glycerol formal, benzyl benzoate, DMSO, or glycerin.

Lipid moisture level = type: physicochemical; conditions: after vacuum at room temperature for 48 hours
Description: The moisture level of the lipid, e.g., DOPC, […], or DMPC, is measured after vacuum at room temperature for 48 hours. Lipid vehicles with lower moisture level can be included in viscous liquid compositions.

[2] = solvent 1:1 benzyl benzoate:benzyl alcohol, expected conc 10.00 mg/ml
[3] = solvent NMP, expected conc 25.00 mg/ml
[4] = solvent PEG 400, expected conc 25.00 mg/ml
[5] = solvent benzyl alcohol, expected conc 10.00 mg/ml
[6] = solvent ethanol, expected conc 25.00 mg/ml
[7] = solvent ethyl hexyl lactate, expected conc 10.00 mg/ml

ω-interferon
solubility ([1]; in the solvents that were combined with DOPC to form suspensions): less than 0.1 mg/mL | Concentration by SEC [1, 2]: 0 ng/mL | Concentration by UV [1, 2]: <100 µg/mL | Concentration by rp-HPLC [1, 2]: 0.00 | Concentration by SEC [1, 3]: 0 ng/mL | Concentration by UV [1, 3]: <100 µg/mL | Concentration by rp-HPLC [1, 3]: 0.00 | Concentration by SEC [1, 4]: 0 ng/mL | Concentration by UV [1, 4]: <100 µg/mL | Concentration by rp-HPLC [1, 4]: 0.00 | Concentration by SEC [1, 5]: 0 ng/mL | Concentration by UV [1, 5]: 140 µg/mL | Concentration by rp-HPLC [1, 5]: 0.00 | Concentration by SEC [1, 6]: 0 ng/mL | Concentration by UV [1, 6]: <100 µg/mL | Concentration by rp-HPLC [1, 6]: 0.00 | Concentration by SEC [1, 7]: 0 ng/mL | Concentration by UV [1, 7]: 370 µg/mL | Concentration by rp-HPLC [1, 7]: 0.00 | Concentration by UV ([1]; solvent lauryl alcohol, expected conc 10.00 mg/ml): <100 µg/mL | Concentration by UV ([1]; solvent lauryl lactate, expected conc 10.00 mg/ml): <100 µg/mL

CCCCCCCC/C=C\CCCCCCCC(=O)OC[C@H](COP(=O)([O-])OCC[N+](C)(C)C)OC(=O)CCCCCCC/C=C\CCCCCCCC [DOPC, 1,2-Dioleoyl-sn-glycero-3-phosphatidylcholine]
Avg. Moisture (Lipid moisture level): 0.6 ± 0.2%

CCCCCCCCCCCCCC(=O)OC[C@H](COP(=O)([O-])OCC[N+](C)(C)C)OC(=O)CCCCCCCCCCCCC [DMPC, dimyristoylphosphatidylcholine]
Avg. Moisture (Lipid moisture level): 0.6%
